In patent US20230295316A1 (FRED HUTCHINSON CANCER CENTER, published 2023):
Read-outs that look alike come from different tables or passages of the source. One block for each binder: values may come before it.

Legend:
[1] = molecular target: T1, Hs_CD123_6His-Avi (CD123 ECD-His-Avi fusion protein) (human, UniProt P26951 19-303); assay: SPR (Biacore T-100), univalent affinity; antibody captured on the CM4 chip, human CD123 ECD as analyte
T1 construct: The signal peptide is marked only by bold type, so its limits cannot be read here and were not guessed; also called His-Avi tagged peptide encompassing the ECD of human CD123
T1 sequence: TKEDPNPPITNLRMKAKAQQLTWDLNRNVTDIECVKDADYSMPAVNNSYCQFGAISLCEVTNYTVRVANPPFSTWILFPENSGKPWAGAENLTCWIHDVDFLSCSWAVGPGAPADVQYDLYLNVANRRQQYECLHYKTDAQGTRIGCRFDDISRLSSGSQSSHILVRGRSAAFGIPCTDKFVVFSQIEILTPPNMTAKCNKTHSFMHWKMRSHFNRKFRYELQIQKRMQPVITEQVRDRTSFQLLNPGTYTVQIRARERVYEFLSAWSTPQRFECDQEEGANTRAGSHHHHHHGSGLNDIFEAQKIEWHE
Experimental: FIGS. 13A-13B. Surface plasmon resonance (Biacore T-100) analyses were performed to rigorously/precisely determine univalent binding affinities of recombinant chimeric and humanized versions of the anti-human CD123 monoclonal antibody 10C4, using (FIG. 13A) human IgG1 and (FIG. 13B) human IgG4 frameworks. For these experiments, a peptide encoding the complete extracellular portion of human CD123 was used, and the antibodies were captured on the biosensor chip (CM4) via a Fc gamma-specific goat anti-human IgG and amine coupling.

[2] = molecular target: T1, Hs_CD123_6His-Avi (CD123 ECD-His-Avi …); assay: competition ELISA: plate coated with CD123 ECD-His-Avi, biotinylated 10C4 as competitor, increasing unlabeled antibody, HRP-streptavidin; unit not given, x axis is log(concentration)
From the text: (§1) FIGS. 15A-15B. Enzyme-linked immunosorbent assay (ELISA) with the original mouse 10C4 antibody and peptide encompassing the entire extracellular domain (ECD) of CD123 was used to test competitive binding of 10C4 compared to recombinant (FIG. 15A) human IgG1 versions and (FIG. 15B) human IgG4 versions of chimeric 10C4 and humanized 10C4 monoclonal antibodies. Plates were coated with CD123 ECD-His-Avi fusion protein and bound to biotinylated 10C4 antibody in the presence or absence of increasing amounts of competing unlabeled antibodies, as detected by HRP-Streptavidin.

[3] = molecular target: T1, Hs_CD123_6His-Avi (CD123 ECD-His-Avi …); assay: competition ELISA against biotinylated 10C4 on coated CD123 ECD-His-Avi; percent relative to the 10C4 row of the drawn table
From the text: as §1

[4] = molecular target: T1, Hs_CD123_6His-Avi (CD123 ECD-His-Avi …); assay: competition ELISA: plate coated with CD123 ECD-His-Avi, biotinylated 10C4 as competitor, increasing unlabeled antibody, HRP-streptavidin; unit not given, x axis is log(concentration); remark: listed apart in the source
From the text: as §1

[5] = molecular target: T2, human interleukin-3 (IL-3) receptor alpha-chain (CD123), on cells (human, UniProt P26951 19-378); assay: flow cytometry (APC-A), unmodified mAb + secondary antibody, RS4;11 cells overexpressing human CD123 [CONT.]
T2 construct: whole, on cells; also called human CD123
From the text: FIG. 4. Parental CD123-negative human RS4;11 ALL cells and RS4;11 cells engineered to overexpress human CD123 were used for flow cytometric phenotyping of a series of anti-CD123 mAbs (11F11, 5G4, 10C4, 1H8) that were either left unmodified or were reacted with 5, 10, or 15 equivalents of B10. A secondary mAb-only control is also shown.

[6] = molecular target: T2, human interleukin-3 (IL-3) receptor …; assay: flow cytometry (APC-A), 30 min at 4 °C; bound fusion protein detected with APC-anti-hFc (tubes 1-5) or through Y-DOTA-biotin and APC-SA (tubes 6-8); RS4;11 cells expressing human CD123
Experimental: FIG. 24. Flow cytometry-based binding assay of monomeric anti-CD123 BsAb derived from 10C4 binding sequences. 0.4×10⁶ CD123-negative parental RS4;11 cells (RSA) or RSA cells engineered to express human CD123 (RS4-CD123) were incubated with or without CD123 bispecific fusion protein from purification (FP) or crude supernatant (load), with or without Y-DOTA-biotin. After incubating for 30 min at 4° C. cells were washed twice and assayed by flow cytometry with fluorophore-labeled anti-human Fc receptor secondary Ab (tubes 1-5) to detect bound bispecific fusion protein, or fluorophore labeled […] secondary Ab (tubes 6-8) to detect functional capacity of bispecific fusion protein to bind both CD123+ target cells and the radioligand, Y-DOTA-biotin.

[7] = molecular target: T2, human interleukin-3 (IL-3) receptor …; assay: flow cytometry (APC-A), mAb at 2 µg/mL + labeled secondary antibody; RS4;11 transduced with human CD123, TF-1, KG-1, MOLM-13 cells
Experimental: FIG. 1. Parental human RS4;11 cells (endogenously lacking CD123), RS4;11 cells transduced with human CD123, CD123-expressing human AML cells lines (TF-1, KG-1, MOLM-13), and MOLM-13 cells with CRISPR/Cas9-mediated knockout of the CD123 locus (CD123^KO) were left untreated or treated with murine anti-human CD123 mAbs (10C4, 5G6, 11F11, 1H8; used at 2 µg/mL) or a commercial anti-CD123 mAbs (7G3, used at 2 µg/mL) and a labeled secondary antibody before flow cytometric analysis.

[8] = molecular target: T2, human interleukin-3 (IL-3) receptor …; assay: flow cytometry (PE-A), recombinant human IgG1 mAb + labeled secondary antibody, parental MOLM-13 cells against MOLM-13 CD123KO
[9] = molecular target: T2, human interleukin-3 (IL-3) receptor …; assay: flow cytometry (PE-A), recombinant human IgG4 mAb + labeled secondary antibody, parental MOLM-13 cells against MOLM-13 CD123KO
From the text: FIGS. 20A-20B. MOLM-13 cells with CRISPR/Cas9-mediated knockout of the CD123 locus (MOLM-13^CD123KO), parental MOLM-13 cells (endogenously expressing CD123) (FIG. 20A), ML-1 cells with CRISPR/Cas9-mediated knockout of the CD123 locus (ML-1^CD123KO), and ML-1^CD123KO cells in which human CD123 was re-expressed via lentivirus-mediated gene expression (FIG. 20B) were left untreated or treated with recombinant human anti-human CD123 mAbs (clones 1B5, 1D9, 1E3, 1F2, and 1G5; all human IgG4 frameworks) and a labeled secondary antibody before flow cytometric analysis.

- Kd [1]: 1.39 nM
- koff [1]: 0.00011 s⁻¹
- kon [1]: 79100 M⁻¹ s⁻¹
- Calculated concentration at 1/2 OD [2]: 1.21
- Immunoreactivity [3]: 116%
B1: Chi-10C4, recombinant chimeric 10C4, human IgG4 framework (antibody)
heavy: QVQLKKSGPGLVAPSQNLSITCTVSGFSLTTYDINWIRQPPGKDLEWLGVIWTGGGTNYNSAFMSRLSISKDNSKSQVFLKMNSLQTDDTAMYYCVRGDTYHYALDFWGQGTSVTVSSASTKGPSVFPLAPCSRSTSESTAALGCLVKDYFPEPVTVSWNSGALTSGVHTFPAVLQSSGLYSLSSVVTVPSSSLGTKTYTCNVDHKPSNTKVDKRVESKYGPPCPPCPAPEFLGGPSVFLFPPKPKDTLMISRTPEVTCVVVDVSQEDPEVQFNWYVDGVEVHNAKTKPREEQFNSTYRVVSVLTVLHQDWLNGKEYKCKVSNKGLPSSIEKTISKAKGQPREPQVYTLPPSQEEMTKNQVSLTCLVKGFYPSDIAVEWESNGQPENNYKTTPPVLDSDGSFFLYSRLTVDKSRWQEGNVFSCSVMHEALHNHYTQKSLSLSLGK
light: DIVMSQSPSSLAVSAGEKVTMSCKSSQSLLSSGTRKNYLAWYQQKPGQSPKLLIYWASTRESGVPDRFTGSGSGTDFTLTISSVQAEDLAVYYCKQSYILFTFGSGTKLEIKRTVAAPSVFIFPPSDEQLKSGTASVVCLLNNFYPREAKVQWKVDNALQSGNSQESVTEQDSKDSTYSLSSTLTLSKADYEKHKVYACEVTHQGLSSPVTKSFNRGEC
notes: Signal peptide left out as for the IgG1 form

- Kd [1]: 0.572 nM
- koff [1]: 5.24e-05 s⁻¹
- kon [1]: 91600 M⁻¹ s⁻¹
- Immunoreactivity [3]: 100%
- Calculated concentration at 1/2 OD [4]: 1.12
B2: Chi-10C4, recombinant chimeric 10C4, human IgG1 framework (antibody)
heavy: not shown
light: DIVMSQSPSSLAVSAGEKVTMSCKSSQSLLSSGTRKNYLAWYQQKPGQSPKLLIYWASTRESGVPDRFTGSGSGTDFTLTISSVQAEDLAVYYCKQSYILFTFGSGTKLEIKRTVAAPSVFIFPPSDEQLKSGTASVVCLLNNFYPREAKVQWKVDNALQSGNSQESVTEQDSKDSTYSLSSTLTLSKADYEKHKVYACEVTHQGLSSPVTKSFNRGEC

- binding result [5]: binds
B3: 123-1H8 (murine anti-CD123 antibody, IgG1 isotype, Kappa Light Chain) (antibody, V domains shown)
VH: EVKLVESEGGLVQPGSSMKLSCTASGFTFSDYYMAWVRQVPEKGLEWVANIDDEGSSTYYLDSLKSRFIISRDNAKNILYLQMTSLKSEDTATYYCARGTTQTSFFVHWGQGTLVTVSA
VL: DIVLTQSPASLAVSLGQRATISCRASQSVSSSSYSFMHWYQKKPRQPPKLLIKYASTLEAGVPARFSGSGSGTDFTLNIHPVEEEDTATYYCQHSWEIPYTFGGGTKLEIK
notes: murine IgG1, kappa

- Kd [1]: 0.401 nM
- koff [1]: 0.000102 s⁻¹
- kon [1]: 254000 M⁻¹ s⁻¹
- Calculated concentration at 1/2 OD [2]: 1.04
- Calculated concentration at 1/2 OD [4]: 1.12
B4: 123-10C4 (murine anti-CD123 antibody, IgG2b isotype, Kappa Light Chain) (antibody, V domains shown)
VH: QVQLKESGPGLVAPSQNLSITCTVSGFSLTTYDINWIRQPPGKGLEWLGVIWTGGGTNYNSAFMSRLSISKDNSKSQVFLKMNSLQTDDTAMYYCVRGDTYHYALDFWGQGTSVTVSS
VL: DIVMSQSPSSLAVSAGEKVTMSCKSSQSLLSSGTRKNYLAWYQQKPGQSPKLLIYWASTRESGVPDRFTGSGSGTDFTLTISSVQAEDLAVYYCKQSYILFTFGSGTKLEIK
notes: also called parent murine 10C4; murine anti-human CD123 monoclonal antibody 10C4

- binding result [6]: binds
B5: 10C4-Fc-C825 monomeric construct (monomeric anti-CD123 x anti-Y-DOTA bispecific antibody) (bispecific antibody, human IgG1)
chain: DIVMSQSPSSLAVSAGEKVTMSCKSSQSLLSSGTRKNYLAWYQQKPGQSPKLLIYWASTRESGVPDRFTGSGSGTDFTLTISSVQAEDLAVYYCKQSYILFTFGSGTKLEIKGGGSGGGGSGGGGSGGGGSSQVQLKESGPGLVAPSQNLSITCTVSGFSLTTYDINWIRQPPGKGLEWLGVIWTGGGTNYNSAFMSRLSISKDNSKSQVFLKMNSLQTDDTAMYYCVRGDTYHYALDFWGQGTSVTVSSLEPKSSDKTHTSPPSPAPELLGGPSVFLFPPKPKDTLMISRTPEVTCVVVDVSHEDPEVKFNWYVDGVEVHNAKTKPREEQYNSTYRVVSVLTVLHQDWLNGKEYKCKVSNKALPAPIEKTISKAKGQPREPQVYTLPPSRDELTKNQVSLTCRVKGFYPSDIAVEWESNGQPENNYKTTPPVLDSDGSFHLESKLTVDKSRWQQGNVFSCSVMHEGLHNHYTQKSLSLSPGKVDGASSHVNVSSPSVQDIHVKLQESGPGLVQPSQSLSLTCTVSGFSLTDYGVHWVRQSPGKGLEWLGVIWSGGGTAYNTALISRLNIYRDNSKNQVFLEMNSLQAEDTAMYYCARRGSYPYNYFDAWGCGTTVTVSSGGGGSGGGGSGGGGSQAVVIQESALTTPPGETVTLTCGSSTGAVTASNYANWVQEKPDHCFTGLIGGHNNRPPGVPARFSGSLIGDKAALTIAGTQTEDEAIYFCALWYSDHWVIGGGTRLTVLG
notes: Single chain: 10C4 VL, linker 1, 10C4 VH, hinge and human IgG1 Fc (monomerising substitutions), linker 2, C825 VH, linker 3, C825 VL; also called monomeric 10C4 BsAb; monomeric anti-CD123 BsAb

- binding result [5]: binds
B6: 123-5G4 (murine anti-CD123 antibody, IgG2a isotype, Kappa Light Chain) (antibody, V domains shown)
VH: DVQLQESGPGLVKPSQSLSLTCTVTGYSITSDYVWNWIRQFPGNKLEWMAYISYSGTTSYNPSLSSRISITRDTSSNQFFLQLNSVTSEDTATYYCARGLDYWGQGTSVTVSS
VL: QIVLTQSPAIMSVSLGERVTMTCTASSSVTSSYFHWYQQKPGSSPKLWIYSTSNLASGVPARFSGSGSGTSYSLTISSMEAEDAATYYCHQYHRSPRTFGGGTKLEIK
notes: murine IgG2a, kappa

- binding result [7]: binds
B7: 123-11F11 (murine anti-CD123 antibody, IgG1 isotype, Kappa Light Chain) (antibody, V domains shown)
VH: EVTLVESGGGLEQPGGSLSLSCAASGFTFTDYYMSWVRQPPGKALEWLALIRNKANGYTTEYSASVKGRFTISRDNSQSILYLQMNALRAEDSATYYCARQVRNYYGYEEDALDYWGQGTSVTVSS
VL: DIVLTQSPASLAVSLGQRATISCRASESLDFYGNSFMHWYQQKSGQPPKLLISRASNLESGIPPRFSGSGSRTDFTLTIDPVEADDVATYYCQQSYEDPYTFGGGTKLEIK
notes: murine IgG1, kappa

- binding result [8]: binds
B8: 123-ATX1F2, fully human recombinant antibody, human IgG1 framework (antibody)
heavy: not shown
light: DIQMTQSPSSLSASVGDRVTITCRASQGIRNDLGWYQQRPGKAPKRLIYAASSLQSGVPSRFSGSGSGTEFTLAISSLQPEDFATYSCLQHNSYPWTFGQGTKVEIKRTVAAPSVFIFPPSDEQLKSGTASVVCLLNNFYPREAKVQWKVDNALQSGNSQESVTEQDSKDSTYSLSSTLTLSKADYEKHKVYACEVTHQGLSSPVTKSFNRGEC
notes: also called 1F2 (human IgG1)

- binding result [9]: binds
B9: 123-ATX1F2, fully human recombinant antibody, human IgG4 framework (antibody)
heavy: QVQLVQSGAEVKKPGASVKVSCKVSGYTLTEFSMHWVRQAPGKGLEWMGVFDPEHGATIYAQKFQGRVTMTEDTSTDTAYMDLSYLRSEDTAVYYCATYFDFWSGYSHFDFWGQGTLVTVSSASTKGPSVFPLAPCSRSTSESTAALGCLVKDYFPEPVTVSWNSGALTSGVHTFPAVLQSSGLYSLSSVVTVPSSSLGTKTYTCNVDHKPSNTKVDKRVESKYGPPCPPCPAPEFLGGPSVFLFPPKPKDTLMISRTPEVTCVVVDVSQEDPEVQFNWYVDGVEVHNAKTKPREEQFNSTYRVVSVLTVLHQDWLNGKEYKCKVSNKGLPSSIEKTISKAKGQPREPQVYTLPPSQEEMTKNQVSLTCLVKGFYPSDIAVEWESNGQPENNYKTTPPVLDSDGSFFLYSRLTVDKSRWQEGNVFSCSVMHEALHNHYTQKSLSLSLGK
light: DIQMTQSPSSLSASVGDRVTITCRASQGIRNDLGWYQQRPGKAPKRLIYAASSLQSGVPSRFSGSGSGTEFTLAISSLQPEDFATYSCLQHNSYPWTFGQGTKVEIKRTVAAPSVFIFPPSDEQLKSGTASVVCLLNNFYPREAKVQWKVDNALQSGNSQESVTEQDSKDSTYSLSSTLTLSKADYEKHKVYACEVTHQGLSSPVTKSFNRGEC
notes: also called 1F2 (human IgG4)
